The target of series [1] is D. melanogaster ovulin (Acp26Aa), endogenous in male accessory glands (D. melanogaster (endogenous in male accessory glands)). Nature of the series: non-reducing SDS-PAGE and Western blot of SDS-stable complexes. Background: In western blotting, separated proteins are transferred to a membrane and probed.
Series [2] has the same target. The series is described as above. The source holds these as a separate data set.
The target of series [3] is D. pseudoobscura ovulin C-terminal fragment, 6xHis-tagged (D. pseudoobscura). Nature of the series: cross-linking.
In series [4] the target is D. yakuba ovulin C-terminal fragment, 6xHis-tagged (D. yakuba). Put plainly: cross-linking.
Series [5] deals with the molecule itself. Put plainly: cross-linking.
Series [6] deals with the molecule itself. Nature of the series: non-reducing SDS-PAGE and Western blot of SDS-stable complexes.

Like-named read-outs stand apart in the source and are kept apart here.

For the molecule “D. melanogaster ovulin (Acp26Aa), endogenous in male accessory glands (natural protein)”, the stoichiometry N in series [1] and in series [2] was 2 each time. As to “D. pseudoobscura ovulin C-terminal fragment, 6xHis-tagged (domain or fragment)”, the stoichiometry N (commonly the number of molecules, sites or subunits per partner or assembly) in series [3] amounted to 2. “D. yakuba ovulin C-terminal fragment, 6xHis-tagged (domain or fragment)” showed a stoichiometry N in series [4] of 2.

B1: Wild-type D. melanogaster ovulin C45 (C-terminal fragment), 6xHis- and Xpress-tagged (domain or fragment, UniProt P10333 219-264, looked up)
chain: NVRNTYRNKYLTLLKELSQKINNEIAKVATDVPTETNPSQGNLPTL
B1: the “stoichiometry N” value in series [5] stood at 2.

B2: D. simulans ovulin C-terminal fragment, 6xHis-tagged (domain or fragment, UniProt P33737 156-255, looked up)
chain: RQLNIDLELELEALKRKLSEMNAQNARKPTKSCKKRPSKDIAPPANQLQEVIVKNTYRNKYLTLLTQLAQKINYEIANVNNPATDVPTGKSPSEGNPSTT
Regarding B2, the “stoichiometry N” value in series [5] stood at 2.

B3: D. simulans ovulin (putative ortholog), endogenous in male accessory glands (natural protein, UniProt P33737 19-255, looked up)
chain: NCDGEHQLDSSMDLKSDSTKSAVLKNVAPKNDATQAEIAKDDVALKSGKKGDYVMDIDVCTMPLDDYPINNSKSRKNSSTLPSQILTDKPNQGSNQIALKALKHRLLMEQNNNLFLRNHSVSLMNEIEARKTDIIQARQLNIDLELELEALKRKLSEMNAQNARKPTKSCKKRPSKDIAPPANQLQEVIVKNTYRNKYLTLLTQLAQKINYEIANVNNPATDVPTGKSPSEGNPSTT
Regarding B3, the “stoichiometry N” value in series [6] amounted to 2.

(Values after publication PMC2854237 (Insect biochemistry and molecular biology, 2010).)
